± gives the standard deviation of the averaged measurements.
What was measured:
MCF7 = assay: percentage of EdU-negative (G0-arrested) nuclei per well, 72 h; higher = more G0 arrest; details: reference: sequence is the full UniProt precursor, the tested protein was the secreted form or ectodomain
hTERT-HMEC = assay: as above; details: reference: sequence is the full UniProt precursor, the tested protein was the secreted form or ectodomain
[1] = protein concentration 0.009215 µM
[2] = protein concentration 0.09215 µM
[3] = protein concentration 0.0135 µM
[4] = protein concentration 0.0225 µM
[5] = protein concentration 0.03125 µM
[6] = protein concentration 0.3125 µM
[7] = protein concentration 0.03092 µM
[8] = protein concentration 0.3092 µM
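Further: secreted proteins added to cultured cells, EdU pulse at the end, nuclei found by Hoechst imaging, EdU status from nuclear versus surrounding ring intensity ratio, PBS as neutral control.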

“MFWKLSLSLFLVAVLVKVAEARKNRPAGAIPSPYKDGSSNNSERWQHQIKEVLASSQEALVVTERKYLKSDWCKTQPLRQTVSEEGCRSRTILNRFCYGQCNSFYIPRHVKKEEESFQSCAFCKPQRVTSVLVELECPGLDPPFRLKKIQKVKQCRCMSVNLSDSDKQ [Q9H772]” was tested, and the “percentage of EdU-negative” value (MCF7; [1]) was 22.3 ± 1.6%, the “percentage of EdU-negative” value (MCF7; [2]) was 27.2 ± 0.92% and the “percentage of EdU-negative” value (hTERT-HMEC; [1]) was 5.28 ± 0.078%. The “percentage of EdU-negative” value (hTERT-HMEC; [2]) was 5.14 ± 0.38%.

For “MWLLVSVILISRISSVGGEATFCDFPKINHGILYDEEKYKPFSQVPTGEVFYYSCEYNFVSPSKSFWTRITCTEEGWSPTPKCLRLCFFPFVENGHSESSGQTHLEGDTVQIICNTGYRLQNNENNISCVERGWSTPPKCRSTDTSCVNPPTVQNAHILSRQMSKYPSGERVRYECRSPYEMFGDEEVMCLNGNWTEPPQCKDSTGKCGPPPPIDNGDITSFPLSVYAPASSVEYQCQNLYQLEGNKRITCRNGQWSEPPKCLHPCVISREIMENYNIALRWTAKQKLYLRTGESAEFVCKRGYRLSSRSHTLRTTCWDGKLEYPTCAKR”, the “percentage of EdU-negative” value (MCF7; [3]) was 25.1 ± 1.9%, the “percentage of EdU-negative” value (MCF7; protein concentration 0.135 µM) was 25.3 ± 0.89% and the “percentage of EdU-negative” value (hTERT-HMEC; [3]) was 5.26 ± 0.45%. For the same sequence, the “percentage of EdU-negative” value (hTERT-HMEC; protein concentration 0.135 µM) was 5.53 ± 0.48%.

For “MEPAAALHFSLPASLLLLLLLLLLSLCALVSAQFTVVGPANPILAMVGENTTLRCHLSPEKNAEDMEVRWFRSQFSPAVFVYKGGRERTEEQMEEYRGRITFVSKDINRGSVALVIHNVTAQENGIYRCYFQEGRSYDEAILRLVVAGLGSKPLIEIKAQEDGSIWLECISGGWYPEPLTVWRDPYGEVVPALKEVSIADADGLFMVTTAVIIRDKYVRNVSCSVNNTLLGQEKETVIFIPESFMPSASPWMVALAVILTASPWMVSMTVILAVFIIFMAVSICCIKKLQREKKILSGEKKVEQEEKEIAQQLQEELRWRRTFLHAADVVLDPDTAHPELFLSEDRRSVRRGPYRQRVPDNPERFDSQPCVLGWESFASGKHYWEVEVENVMVWTVGVCRHSVERKGEVLLIPQNGFWTLEMFGNQYRALSSPERILPLKESLCRVGVFLDYEAGDVSFYNMRDRSHIYTCPRSAFTVPVRPFFRLGSDDSPIFICPALTGASGVMVPEEGLKLHRVGTHQSL [Q8WVV5]”, the “percentage of EdU-negative” value (MCF7; [4]) was 25.6 ± 3.6%, the “percentage of EdU-negative” value (MCF7; protein concentration 0.225 µM) was 27.8 ± 0.4% and the “percentage of EdU-negative” value (hTERT-HMEC; [4]) was 4.5399 ± 0.0037%. For the same sequence, the “percentage of EdU-negative” value (hTERT-HMEC; protein concentration 0.225 µM) was 8.99 ± 1.1%.

With “MLPRVGCPALPLPPPPLLPLLLLLLGASGGGGGARAEVLFRCPPCTPERLAACGPPPVAPPAAVAAVAGGARMPCAELVREPGCGCCSVCARLEGEACGVYTPRCGQGLRCYPHPGSELPLQALVMGEGTCEKRRDAEYGASPEQVADNGDDHSEGGLVENHVDSTMNMLGGGGSAGRKPLKSGMKELAVFREKVTEQHRQMGKGGKHHLGLEEPKKLRPPPARTPCQQELDQVLERISTMRLPDERGPLEHLYSLHIPNCDKHGLYNLKQCKMSLNGQRGECWCVNPNTGKLIQGAPTIRGDPECHLFYNEQQEARGVHTQRMQ” the “percentage of EdU-negative” value (MCF7; [5]) was 27.7 ± 2.4%, the “percentage of EdU-negative” value (MCF7; [6]) was 31.1 ± 3.1% and the “percentage of EdU-negative” value (hTERT-HMEC; [5]) was 4.88 ± 1%. The “percentage of EdU-negative” value (hTERT-HMEC; [6]) was 6.96 ± 0.2%.

For “MHSFPPLLLLLFWGVVSHSFPATLETQEQDVDLVQKYLEKYYNLKNDGRQVEKRRNSGPVVEKLKQMQEFFGLKVTGKPDAETLKVMKQPRCGVPDVAQFVLTEGNPRWEQTHLTYRIENYTPDLPRADVDHAIEKAFQLWSNVTPLTFTKVSEGQADIMISFVRGDHRDNSPFDGPGGNLAHAFQPGPGIGGDAHFDEDERWTNNFREYNLHRVAAHELGHSLGLSHSTDIGALMYPSYTFSGDVQLAQDDIDGIQAIYGRSQNPVQPIGPQTPKACDSKLTFDAITTIRGEVMFFKDRFYMRTNPFYPEVELNFISVFWPQLPNGLEAAYEFADRDEVRFFKGNKYWAVQGQNVLHGYPKDIYSSFGFPRTVKHIDAALSEENTGKTYFFVANKYWRYDEYKRSMDPGYPKMIAHDFPGIGHKVDAVFMKDGFFYFFHGTRQYKFDPKTKRILTLQKANSWFNCRKN”, the “percentage of EdU-negative” value (MCF7; [7]) was 24.3 ± 3.2%, the “percentage of EdU-negative” value (MCF7; [8]) was 26.43 ± 0.08% and the “percentage of EdU-negative” value (hTERT-HMEC; [7]) was 4.22 ± 0.79%. The “percentage of EdU-negative” value (hTERT-HMEC; [8]) was 6.403 ± 0.048%.

With “MSNTQAERSIIGMIDMFHKYTRRDDKIEKPSLLTMMKENFPNFLSACDKKGTNYLADVFEKKDKNEDKKIDFSEFLSLLGDIATDYHKQSHGAAPCSGGSQ” the “percentage of EdU-negative” value (MCF7; [4]) was 23.5 ± 2.3%, the “percentage of EdU-negative” value (MCF7; protein concentration 0.225 µM) was 26.5 ± 2.3% and the “percentage of EdU-negative” value (hTERT-HMEC; [4]) was 5.43 ± 0.67%. The “percentage of EdU-negative” value (hTERT-HMEC; protein concentration 0.225 µM) was 5.53 ± 0.45%.
